Patent US20240417458A1 (DISC MEDICINE, published 2024)
Where “and” joins values, the source holds several entries; their conditions need not be identical. Identical values can stand only once.

How the values were obtained:
FcRn = biological target: T1, FcRn; experiment: SPR (BIAcore) at pH 6.0
T1 construct: also called neonatal Fc receptor

[1] = biological target: T2, membrane-bound human RGMc (human, UniProt Q6ZVN8 36-400); experiment: cell-based or functional assay
T2 sequence: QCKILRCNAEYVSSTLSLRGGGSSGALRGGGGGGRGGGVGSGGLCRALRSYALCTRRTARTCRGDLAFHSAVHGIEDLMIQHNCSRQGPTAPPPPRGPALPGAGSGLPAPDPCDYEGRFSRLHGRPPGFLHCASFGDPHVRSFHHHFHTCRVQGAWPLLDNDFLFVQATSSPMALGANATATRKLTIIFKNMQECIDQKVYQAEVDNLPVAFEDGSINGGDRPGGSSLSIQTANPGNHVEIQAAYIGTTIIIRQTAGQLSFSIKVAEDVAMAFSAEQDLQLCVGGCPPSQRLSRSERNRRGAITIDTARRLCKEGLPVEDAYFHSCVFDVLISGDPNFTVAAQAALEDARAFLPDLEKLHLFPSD

soluble human RGMa = biological target: T3, soluble human RGMa (human, UniProt Q96B86 48-422, limits assumed); experiment: SPR (BIAcore), RGM antigen in solution
T3 construct: Soluble antigen in BIAcore; also called huRGMa; repulsive guidance molecule A
T3 sequence (looked up): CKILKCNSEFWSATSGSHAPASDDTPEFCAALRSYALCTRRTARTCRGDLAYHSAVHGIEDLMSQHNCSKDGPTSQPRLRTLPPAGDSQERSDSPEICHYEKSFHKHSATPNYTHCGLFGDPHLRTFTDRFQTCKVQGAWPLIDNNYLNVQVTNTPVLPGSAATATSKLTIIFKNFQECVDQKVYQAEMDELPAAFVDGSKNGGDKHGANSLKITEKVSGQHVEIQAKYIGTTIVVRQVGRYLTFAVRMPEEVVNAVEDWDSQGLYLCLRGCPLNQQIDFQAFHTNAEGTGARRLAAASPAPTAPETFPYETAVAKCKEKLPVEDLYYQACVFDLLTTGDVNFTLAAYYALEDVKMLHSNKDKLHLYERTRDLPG

soluble rat RGMa = biological target: T4, soluble rat RGMa (rat, UniProt D4A188 48-421); experiment: SPR (BIAcore), RGM antigen in solution
T4 construct: Soluble antigen in BIAcore
T4 sequence: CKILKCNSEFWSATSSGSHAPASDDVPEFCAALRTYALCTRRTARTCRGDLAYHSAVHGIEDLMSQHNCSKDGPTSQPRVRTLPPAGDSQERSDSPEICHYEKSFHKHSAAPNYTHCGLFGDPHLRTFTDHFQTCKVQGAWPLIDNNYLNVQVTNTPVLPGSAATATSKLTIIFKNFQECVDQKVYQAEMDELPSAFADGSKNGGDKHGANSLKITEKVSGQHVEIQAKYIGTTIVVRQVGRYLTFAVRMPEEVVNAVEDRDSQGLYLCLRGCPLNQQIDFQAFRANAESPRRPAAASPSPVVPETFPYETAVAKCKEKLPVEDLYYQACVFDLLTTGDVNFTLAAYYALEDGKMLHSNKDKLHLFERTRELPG

soluble human RGMc = biological target: T5, soluble human RGMc (human, UniProt Q6ZVN8 36-400); experiment: SPR (BIAcore), RGM antigen in solution
T5 construct: also called huRGMc; soluble hRGMc
T5 sequence: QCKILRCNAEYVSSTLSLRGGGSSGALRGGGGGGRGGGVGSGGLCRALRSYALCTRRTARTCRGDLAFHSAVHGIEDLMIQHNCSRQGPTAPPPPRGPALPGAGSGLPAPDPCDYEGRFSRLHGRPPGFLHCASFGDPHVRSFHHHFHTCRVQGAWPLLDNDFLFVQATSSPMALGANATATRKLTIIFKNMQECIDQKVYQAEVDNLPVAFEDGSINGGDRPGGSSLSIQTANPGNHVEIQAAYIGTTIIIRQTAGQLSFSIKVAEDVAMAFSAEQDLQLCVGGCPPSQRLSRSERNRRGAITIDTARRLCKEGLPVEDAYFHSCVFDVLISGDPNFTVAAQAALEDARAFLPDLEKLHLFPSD

Cyno RGMa = biological target: T6, Cyno RGMa (cyno, UniProt Q9N0A6 54-433, limits assumed); experiment: SPR (BIAcore), RGM antigen in solution
T6 sequence (looked up): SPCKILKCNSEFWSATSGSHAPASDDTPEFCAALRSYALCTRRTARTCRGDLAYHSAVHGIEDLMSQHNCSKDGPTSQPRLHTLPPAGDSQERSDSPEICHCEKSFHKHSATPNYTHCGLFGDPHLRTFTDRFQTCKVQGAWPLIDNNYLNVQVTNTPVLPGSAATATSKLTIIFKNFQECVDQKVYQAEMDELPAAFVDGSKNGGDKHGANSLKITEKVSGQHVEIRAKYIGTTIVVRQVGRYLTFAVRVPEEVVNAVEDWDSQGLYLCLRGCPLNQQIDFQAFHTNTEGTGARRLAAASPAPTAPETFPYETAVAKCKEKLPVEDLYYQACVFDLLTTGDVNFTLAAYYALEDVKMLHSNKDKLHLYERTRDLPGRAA

Cyno RGMc = biological target: T7, Cyno RGMc (cyno, UniProt A0A2K5TJX5 36-401); experiment: SPR (BIAcore), RGM antigen in solution
T7 sequence: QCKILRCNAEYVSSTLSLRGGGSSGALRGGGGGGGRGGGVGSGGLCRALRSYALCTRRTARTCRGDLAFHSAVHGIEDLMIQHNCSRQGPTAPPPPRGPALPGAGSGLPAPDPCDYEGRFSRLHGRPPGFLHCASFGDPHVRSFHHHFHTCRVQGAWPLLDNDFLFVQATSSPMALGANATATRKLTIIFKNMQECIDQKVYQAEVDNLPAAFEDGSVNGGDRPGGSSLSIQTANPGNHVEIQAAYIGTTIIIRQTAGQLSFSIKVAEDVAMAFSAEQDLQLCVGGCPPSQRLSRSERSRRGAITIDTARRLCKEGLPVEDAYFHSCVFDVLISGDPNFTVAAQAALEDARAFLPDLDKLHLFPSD

Human RGMb = biological target: T8, Human RGMb (human, UniProt Q6NW40 46-413, limits assumed); experiment: SPR (BIAcore), RGM antigen in solution
T8 construct: also called repulsive guidance molecule B
T8 sequence (looked up): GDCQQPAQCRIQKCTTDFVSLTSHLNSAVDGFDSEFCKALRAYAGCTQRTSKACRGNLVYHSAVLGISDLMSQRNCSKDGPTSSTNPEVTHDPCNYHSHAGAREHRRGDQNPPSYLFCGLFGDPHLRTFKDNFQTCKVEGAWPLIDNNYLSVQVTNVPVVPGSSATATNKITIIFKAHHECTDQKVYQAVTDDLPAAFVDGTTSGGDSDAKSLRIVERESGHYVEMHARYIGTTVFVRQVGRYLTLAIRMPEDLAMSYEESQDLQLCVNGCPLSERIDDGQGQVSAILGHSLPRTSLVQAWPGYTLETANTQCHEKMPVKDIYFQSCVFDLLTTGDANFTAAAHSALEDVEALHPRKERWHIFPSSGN

T1 sequence (P55899 24-297, chain 1 of 2): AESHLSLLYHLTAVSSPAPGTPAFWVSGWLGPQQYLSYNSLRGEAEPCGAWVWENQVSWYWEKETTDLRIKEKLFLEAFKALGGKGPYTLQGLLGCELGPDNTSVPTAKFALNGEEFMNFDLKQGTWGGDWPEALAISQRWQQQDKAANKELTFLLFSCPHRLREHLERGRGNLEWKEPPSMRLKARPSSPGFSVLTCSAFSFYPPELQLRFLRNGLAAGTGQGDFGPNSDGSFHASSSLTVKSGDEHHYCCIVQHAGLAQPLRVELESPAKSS
T1 sequence (P61769 21-119, chain 2 of 2, further chain): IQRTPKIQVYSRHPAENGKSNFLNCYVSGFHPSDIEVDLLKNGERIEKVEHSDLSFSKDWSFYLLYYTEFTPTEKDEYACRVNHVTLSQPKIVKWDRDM

B1: hHA-008 (antibody, human IgG1, kappa, L234A L235A)
heavy: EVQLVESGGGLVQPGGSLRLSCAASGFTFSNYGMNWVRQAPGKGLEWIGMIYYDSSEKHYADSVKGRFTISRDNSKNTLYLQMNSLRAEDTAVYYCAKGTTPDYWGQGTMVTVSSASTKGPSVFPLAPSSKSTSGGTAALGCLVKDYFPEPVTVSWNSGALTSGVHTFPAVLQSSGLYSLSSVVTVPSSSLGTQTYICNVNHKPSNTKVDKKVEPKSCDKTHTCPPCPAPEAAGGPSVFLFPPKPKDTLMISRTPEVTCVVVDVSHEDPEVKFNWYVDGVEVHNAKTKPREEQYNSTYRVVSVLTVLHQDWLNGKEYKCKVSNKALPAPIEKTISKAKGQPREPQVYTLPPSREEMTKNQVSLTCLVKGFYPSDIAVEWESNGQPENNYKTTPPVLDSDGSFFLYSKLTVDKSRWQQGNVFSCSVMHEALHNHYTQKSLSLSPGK
light: DVVLTQSPLSLPVTLGQPASISCRSSQSLEESDGYTFLHWFQQRPGQSPRLLIYEVSTRFSGVPDRFSGSGSGTDFTLKISRVEAEDVGVYYCFQATHDPLTFGQGTKLEIKRTVAAPSVFIFPPSDEQLKSGTASVVCLLNNFYPREAKVQWKVDNALQSGNSQESVTEQDSKDSTYSLSSTLTLSKADYEKHKVYACEVTHQGLSSPVTKSFNRGEC
notes: hIgG1 L234A, L235A, kappa; also called hHA-008 (hIgG1mut(LALA)/k)
For B1, the Kd (FcRn) was 2950 nM and 2960 nM, the “IC50 (read off the curve)” value [1] was about 0.4 nM and the Kd (soluble human RGMa) was 0.074 nM. The koff (soluble human RGMa) was 3.6e-05 s⁻¹, the kon (soluble human RGMa) was 490000 M⁻¹ s⁻¹ and the Kd (soluble rat RGMa) was 0.12 nM. The koff (soluble rat RGMa) was 3.6e-05 s⁻¹, the kon (soluble rat RGMa) was 310000 M⁻¹ s⁻¹ and the Kd (soluble human RGMc) was 0.12 nM. The koff (soluble human RGMc) was 0.00029 s⁻¹, the kon (soluble human RGMc) was 2.5e+06 M⁻¹ s⁻¹ and the Kd (Cyno RGMa) was 0.64 nM. The koff (Cyno RGMa) was 0.00035 s⁻¹, the kon (Cyno RGMa) was 550000 M⁻¹ s⁻¹ and the Kd (Cyno RGMc) was 0.12 nM. The koff (Cyno RGMc) was 0.00031 s⁻¹, the kon (Cyno RGMc) was 2.6e+06 M⁻¹ s⁻¹ and the binding result (Human RGMb) was “no binding”.
